Test results as given in patent US20160257957.

Columns and labels:
[1] = molecular target: T1, HHR23A (recombinant, wild type), P54725
T1 chain: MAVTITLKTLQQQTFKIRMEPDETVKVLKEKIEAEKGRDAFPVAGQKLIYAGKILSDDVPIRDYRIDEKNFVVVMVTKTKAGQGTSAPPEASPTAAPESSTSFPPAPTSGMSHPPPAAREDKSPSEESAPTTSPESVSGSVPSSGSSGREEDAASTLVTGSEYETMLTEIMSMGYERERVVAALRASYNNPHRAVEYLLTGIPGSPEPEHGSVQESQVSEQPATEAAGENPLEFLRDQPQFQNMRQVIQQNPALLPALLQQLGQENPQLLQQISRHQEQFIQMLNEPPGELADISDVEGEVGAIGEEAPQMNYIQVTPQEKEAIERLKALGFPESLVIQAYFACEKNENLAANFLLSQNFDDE

[2] = molecular target: T2, Arc C-terminal protein (132-396 a.a.), Q63053
T2 chain: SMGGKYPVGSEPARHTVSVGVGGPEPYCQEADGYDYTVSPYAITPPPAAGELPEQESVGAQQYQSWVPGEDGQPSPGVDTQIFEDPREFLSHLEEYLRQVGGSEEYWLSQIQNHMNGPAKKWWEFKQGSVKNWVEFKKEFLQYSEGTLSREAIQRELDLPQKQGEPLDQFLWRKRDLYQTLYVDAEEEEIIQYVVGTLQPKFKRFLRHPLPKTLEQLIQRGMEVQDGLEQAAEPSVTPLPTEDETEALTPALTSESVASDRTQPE

B1: Ube3A (recombinant) (protein)
chain: SGEPQSDDIEASRMKRAAAKHLIERYYHQLTEGCGNEACTNEFCASCPTFLRMDNNAAAIKALELYKINAKLCDPHPSKKGASSAYLENSKGAPNNSCSEIKMNKKGARIDFKDVTYLTEEKVYEILELCREREDYSPLIRVIGRVFSSAEALVQSFRKVKQHTKEELKSLQAKDEDKDEDEKEKAACSAAAMEEDSEASSSRIGDSSQGDNNLQKLGPDDVSVDIDAIRRVYTRLLSNEKIETAFLNALVYLSPNVECDLTYHNVYSRDPNYLNLFIIVMENRNLHSPEYLEMALPLFCKAMSKLPLAAQGKLIRLWSKYNADQIRRMMETFQQLITYKVISNEFNSRNLVNDDDAIVAASKCLKMVYYANVVGGEVDTNHNEEDDEEPIPESSELTLQELLGEERRNKKGPRVDPLETELGVKTLDCRKPLIPFEEFINEPLNEVLEMDKDYTFFKVETENKFSFMTCPFILNAVTKNLGLYYDNRIRMYSERRITVLYSLVQGQQLNPYLRLKVRRDHIIDDALVRLEMIAMENPADLKKQLYVEFEGEQGVDEGGVSKEFFQLVVEEIFNPDIGMFTYDESTKLFWFNPSSFETEGQFTLIGIVLGLAIYNNCILDVHFPMVVYRKLMGKKGTFRDLGDSHPVLYQSLKDLLEYEGNVEDDMMITFQISQTDLFGNPMMYDLKENGDKIPITNENRKEFVNLYSDYILNKSVEKQFKAFRRGFHMVTNESPLKYLFRPEEIELLICGSRNLDFQALEETTEYDGGYTRDSVLIREFWEIVHSFTDEQKRLFLQFTTGTDRAPVGGLGKLKMIIAKNGPDTERLPTSHTCFNVLLLPEYSSKEKLKERLLKAITYAKGFGML
ubiquitination of HHR23A by Ube3A [1]: this domain is required for Ube3A to ubiquitinate HHR23A
in vitro ubiquitination assay using purified recombinant proteins [2]: Ube3A ubiquitinated Arc in vitro
